{
  "source": "paper PMC3084675",
  "about": "(Molecular Biology of the Cell, 2011)",
  "molecules": {"B1": {"name": "Dyn2 WT (dynamin-2, wild type), expressed in cells (natural protein)", "chain": "MGNRGMEELIPLVNKLQDAFSSIGQSCHLDLPQIAVVGGQSAGKSSVLENFVGRDFLPRGSGIVTRRPLILQLIFSKTEYAEFLHCKSKKFTDFDEVRQEIEAETDRVTGTNKGISPVPINLRVYSPHVLNLTLIDLPGITKVPVGDQPPDIEYQIKDMILQFISRESSLILAVTPANMDLANSDALKLAKEVDPQGLRTIGVITKLDLMDEGTDARDVLENKLLPLRRGYIGVVNRSQKDIEGRKDIRAALAAERKFFLSHPAYRHMADRMGTPHLQKTLNQQLTNHIRESLPTLRSKLQSQLLSLEKEVEEYKNFRPDDPTRKTKALLQMVQQFGVDFEKRIEGSGDQVDTLELSGGARINRIFHERFPFELVKMEFDEKDLRREISYAIKNIHGVRTGLFTPDLAFEAIVKKQVVKLKEPCLKCVDLVIQELISTVRQCTSKLSSYPRLREETERIVTTYIREREGRTKDQILLLIDIEQSYINTNHEDFIGFANAQQRSTQLNKKRAIPNQGEILVIRRGWLTINNISLMKGGSKEYWFVLTAESLSWYKDEEEKEKKYMLPLDNLKIRDVEKGFMSNKHVFAIFNTEQRNVYKDLRQIELACDSQEDVDSWKASFLRAGVYPEKDQAENEDGAQENTFSMDPQLERQVETIRNLVDSYVAIINKSIRDLMPKTIMHLMINNTKAFIHHELLAYLYSSADQSSLMEESAEQAQRRDDMLRMYHALKEALNIIGDISTSTVSTPVPPPVDDTWLQNTSSHSPTPQRRPVSSVHPPGRPPAVRGPTPGPPLIPMPVGATSSFSAPPIPSRPGPQNVFANNDPFSAPPQIPSRPARIPPGIPPGVPSRRAPAAPSRPTIIRPAEPSLLD"}, "B2": {"name": "His-Dyn2 WT purified from TKB1 E. coli (pDyn2 protein) (natural protein)", "chain": "B1 chain", "modifications": "tyrosine-phosphorylated: recognised by the 4G10 and pDyn2 (pTyr-231) antibodies"}},
  "key": {"[1]": {"target": "FAK (focal adhesion kinase) (UniProt O35346)", "test": "S-bead precipitation of SFB-FAK, Dyn2 blot", "conditions": "reference: wild-type Dyn2; sites Y231,Y597"}, "[2]": {"target": "FAK (focal adhesion kinase) FERM domain (UniProt O35346)", "test": "GST-FERM pull-down of His-Dyn2", "conditions": "reference: His-Dyn2 wild type from TKB1 (phosphorylated); sites Y231,Y597"}, "[3]": {"target": "SFB-FAK (S protein, Flag, and streptavidin binding peptide triple tagged FAK) (rat, UniProt O35346 1-1055)", "sequence (O35346 whole entry)": "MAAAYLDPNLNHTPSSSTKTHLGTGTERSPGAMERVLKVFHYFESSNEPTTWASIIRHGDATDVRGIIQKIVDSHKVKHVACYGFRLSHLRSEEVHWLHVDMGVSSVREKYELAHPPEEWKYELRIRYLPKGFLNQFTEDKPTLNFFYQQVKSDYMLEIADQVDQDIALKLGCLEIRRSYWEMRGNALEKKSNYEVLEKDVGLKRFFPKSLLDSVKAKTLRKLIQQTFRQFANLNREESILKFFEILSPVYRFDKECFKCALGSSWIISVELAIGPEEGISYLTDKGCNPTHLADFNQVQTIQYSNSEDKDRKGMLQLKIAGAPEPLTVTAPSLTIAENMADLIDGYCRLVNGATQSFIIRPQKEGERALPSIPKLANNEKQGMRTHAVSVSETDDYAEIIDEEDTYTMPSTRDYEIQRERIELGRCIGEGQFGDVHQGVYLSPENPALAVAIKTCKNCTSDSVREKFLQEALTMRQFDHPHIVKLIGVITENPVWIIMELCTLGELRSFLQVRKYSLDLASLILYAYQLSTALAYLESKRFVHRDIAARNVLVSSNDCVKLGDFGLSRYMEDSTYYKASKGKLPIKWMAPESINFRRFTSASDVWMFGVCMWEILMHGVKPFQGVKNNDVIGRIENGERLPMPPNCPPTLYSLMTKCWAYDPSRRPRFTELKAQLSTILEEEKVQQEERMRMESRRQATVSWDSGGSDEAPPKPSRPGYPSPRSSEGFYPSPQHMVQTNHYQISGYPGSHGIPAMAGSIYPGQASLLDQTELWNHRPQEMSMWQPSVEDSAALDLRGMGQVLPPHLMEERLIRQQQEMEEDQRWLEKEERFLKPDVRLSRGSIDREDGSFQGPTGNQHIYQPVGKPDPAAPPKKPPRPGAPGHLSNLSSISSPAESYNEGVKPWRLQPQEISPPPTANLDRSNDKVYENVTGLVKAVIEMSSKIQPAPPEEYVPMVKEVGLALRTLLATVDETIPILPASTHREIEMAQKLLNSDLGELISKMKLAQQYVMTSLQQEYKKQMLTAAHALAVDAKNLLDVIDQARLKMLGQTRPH", "test": "co-IP"}, "[4]": {"target": "T1, GST-FERM (FERM domain of FAK) (rat, UniProt O35346 35-355)", "T1 sequence (looked up)": "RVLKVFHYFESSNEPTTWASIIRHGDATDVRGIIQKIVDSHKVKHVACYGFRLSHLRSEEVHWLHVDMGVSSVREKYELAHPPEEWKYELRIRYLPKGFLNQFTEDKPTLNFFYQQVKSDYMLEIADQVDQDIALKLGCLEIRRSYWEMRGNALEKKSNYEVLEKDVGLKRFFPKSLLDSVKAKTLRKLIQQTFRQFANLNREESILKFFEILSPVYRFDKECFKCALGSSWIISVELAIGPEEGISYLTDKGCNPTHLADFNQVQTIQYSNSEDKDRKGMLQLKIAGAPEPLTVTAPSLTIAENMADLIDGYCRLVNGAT", "test": "pull-down"}},
  "data": [
    {"molecule": "Dyn2 (dynamin-2) (from UniProt P39052) Dyn2 Y231F/Y597F (YF)", "values": [
      {"measurement": "fold change", "setting": "[1]", "result": "weaker; reference 3.2 ± 0.6-fold"}
    ]},
    {"molecule": "Dyn2 (dynamin-2) (from UniProt P39052) His-Dyn2 Y231F/Y597F from TKB1", "values": [
      {"measurement": "fold change", "setting": "[2]", "result": "weaker; reference threefold"}
    ]},
    {"molecule": "B1", "values": [
      {"measurement": "fold co-precipitated relative to Dyn2 YF", "setting": "[3]", "result": "3.2 ± 0.6", "unit": "fold"}
    ]},
    {"molecule": "B2", "values": [
      {"measurement": "fold association relative to Dyn2 YF", "setting": "[4]", "result": 3, "unit": "fold"}
    ]}
  ]
}
